Data from patent US11833164B2, “Methods of treating Fabry disease in patients having a mutation in the GLA gene” (Amicus Therapeutics, Inc., priority 2019, dated 2023).

Tested on: mutant form of α-Gal A expressed in HEK-293 cells
Assay: HEK assay (GLP HEK / Migalastat Amenability Assay): α-Gal A activity in lysates of transiently transfected HEK-293 cells incubated with or without 10 μM migalastat
Assay type: cell-based, human
Details: for Absolute increase (% WT): 10 μM migalastat versus baseline; for Relative increase: 10 μM migalastat α-Gal A activity relative to baseline; for 10 μM migalastat α-Gal A activity (% WT): 5 days; for 10 μM migalastat α-Gal A activity (% WT) / Baseline α-Gal A activity (% WT): percentage of baseline wild-type α-Gal A activity; for 10 μM migalastat α-Gal A activity (% WT) / Baseline α-Gal A activity (% WT) / Baseline α-Gal A activity / 10 μM migalastat α-Gal A activity: mean ± SEM; for Baseline α-Gal A activity (% WT): absence of migalastat; for Baseline α-Gal A activity / 10 μM migalastat α-Gal A activity: lysates of HEK-293 cells transfected with the mutant form; for Baseline α-Gal A activity: incubated 5 days in the absence of migalastat; for 10 μM migalastat α-Gal A activity: incubated 5 days with 10 μM migalastat
Outline: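 HEK-293 cells transiently transfected with mutant α-Gal A and incubated with or without 10 μM migalastat; lysate activity given as nmol free 4-MU released per mg protein per hour. Values are mean±SEM.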

| Molecule | Absolute increase (% WT) | Relative increase | 10 μM migalastat α-Gal A activity (% WT) | Baseline α-Gal A activity (% WT) | Baseline α-Gal A activity [nmol/mg/h] | 10 μM migalastat α-Gal A activity [nmol/mg/h] |
| --- | --- | --- | --- | --- | --- | --- |
| D161V (protein) MQLRNPELHLGCALALRFLALVSWDIPGARALDNGLARTPTMGWLHWERFMCNLDCQEEPDSCISEKLFMEMAELMVSEGWKDAGYEYLCIDDCWMAPQRDSEGRLQADPQRFPHGIRQLANYVHSKGLKLGIYADVGNKTCAGFPGSFGYYDIDAQTFAVWGVDLLKFDGCYCDSLENLADGYKHMSLALNRTGRSIVYSCEWPLYMWPFQKPNYTEIRQYCNHWRNFADIDDSWKSIKSILDWTSFNQERIVDVAGPGGWNDPDMLVIGNFGLSWNQQVTQMALWAIMAAPLFMSNDLRHISPQAKALLQDKDVIAINQDPLGKQGYQLRQGDNFEVWERPLSGLAWAVAMINRQEIGGPRSYTIAVASLGKGVACNPACFITQLLPVKRKLGFYEWTSRLRSHINPTGTVLLQLENTMQMSLKDLL | 16.0 | 1.4 | 59.7 ± 2.7 | 43.7 ± 1.7 | 13728 ± 1344 | 19117 ± 2241 |
| V164L (protein) MQLRNPELHLGCALALRFLALVSWDIPGARALDNGLARTPTMGWLHWERFMCNLDCQEEPDSCISEKLFMEMAELMVSEGWKDAGYEYLCIDDCWMAPQRDSEGRLQADPQRFPHGIRQLANYVHSKGLKLGIYADVGNKTCAGFPGSFGYYDIDAQTFADWGLDLLKFDGCYCDSLENLADGYKHMSLALNRTGRSIVYSCEWPLYMWPFQKPNYTEIRQYCNHWRNFADIDDSWKSIKSILDWTSFNQERIVDVAGPGGWNDPDMLVIGNFGLSWNQQVTQMALWAIMAAPLFMSNDLRHISPQAKALLQDKDVIAINQDPLGKQGYQLRQGDNFEVWERPLSGLAWAVAMINRQEIGGPRSYTIAVASLGKGVACNPACFITQLLPVKRKLGFYEWTSRLRSHINPTGTVLLQLENTMQMSLKDLL | 35.0 | 1.7 | 86.2 ± 5.2 | 51.2 ± 3.8 | 22055 ± 1619 | 36486 ± 1952 |
| W162S (protein) MQLRNPELHLGCALALRFLALVSWDIPGARALDNGLARTPTMGWLHWERFMCNLDCQEEPDSCISEKLFMEMAELMVSEGWKDAGYEYLCIDDCWMAPQRDSEGRLQADPQRFPHGIRQLANYVHSKGLKLGIYADVGNKTCAGFPGSFGYYDIDAQTFADSGVDLLKFDGCYCDSLENLADGYKHMSLALNRTGRSIVYSCEWPLYMWPFQKPNYTEIRQYCNHWRNFADIDDSWKSIKSILDWTSFNQERIVDVAGPGGWNDPDMLVIGNFGLSWNQQVTQMALWAIMAAPLFMSNDLRHISPQAKALLQDKDVIAINQDPLGKQGYQLRQGDNFEVWERPLSGLAWAVAMINRQEIGGPRSYTIAVASLGKGVACNPACFITQLLPVKRKLGFYEWTSRLRSHINPTGTVLLQLENTMQMSLKDLL | 9.2 | 4.6 | 11.8 ± 0.8 | 2.6 ± 0.2 | 653 ± 38 | 3019 ± 210 |
| D165E (protein) MQLRNPELHLGCALALRFLALVSWDIPGARALDNGLARTPTMGWLHWERFMCNLDCQEEPDSCISEKLFMEMAELMVSEGWKDAGYEYLCIDDCWMAPQRDSEGRLQADPQRFPHGIRQLANYVHSKGLKLGIYADVGNKTCAGFPGSFGYYDIDAQTFADWGVELLKFDGCYCDSLENLADGYKHMSLALNRTGRSIVYSCEWPLYMWPFQKPNYTEIRQYCNHWRNFADIDDSWKSIKSILDWTSFNQERIVDVAGPGGWNDPDMLVIGNFGLSWNQQVTQMALWAIMAAPLFMSNDLRHISPQAKALLQDKDVIAINQDPLGKQGYQLRQGDNFEVWERPLSGLAWAVAMINRQEIGGPRSYTIAVASLGKGVACNPACFITQLLPVKRKLGFYEWTSRLRSHINPTGTVLLQLENTMQMSLKDLL | 18.4 | 4.4 | 23.8 ± 1.6 | 5.4 ± 0.2 | 1442 ± 43 | 6279 ± 288 |
| V164I (protein) MQLRNPELHLGCALALRFLALVSWDIPGARALDNGLARTPTMGWLHWERFMCNLDCQEEPDSCISEKLFMEMAELMVSEGWKDAGYEYLCIDDCWMAPQRDSEGRLQADPQRFPHGIRQLANYVHSKGLKLGIYADVGNKTCAGFPGSFGYYDIDAQTFADWGIDLLKFDGCYCDSLENLADGYKHMSLALNRTGRSIVYSCEWPLYMWPFQKPNYTEIRQYCNHWRNFADIDDSWKSIKSILDWTSFNQERIVDVAGPGGWNDPDMLVIGNFGLSWNQQVTQMALWAIMAAPLFMSNDLRHISPQAKALLQDKDVIAINQDPLGKQGYQLRQGDNFEVWERPLSGLAWAVAMINRQEIGGPRSYTIAVASLGKGVACNPACFITQLLPVKRKLGFYEWTSRLRSHINPTGTVLLQLENTMQMSLKDLL | 41.9 | 1.9 | 87.1 ± 8.2 | 45.1 ± 3.4 | 12164 ± 1271 | 23219 ± 2640 |
| V164A (protein) MQLRNPELHLGCALALRFLALVSWDIPGARALDNGLARTPTMGWLHWERFMCNLDCQEEPDSCISEKLFMEMAELMVSEGWKDAGYEYLCIDDCWMAPQRDSEGRLQADPQRFPHGIRQLANYVHSKGLKLGIYADVGNKTCAGFPGSFGYYDIDAQTFADWGADLLKFDGCYCDSLENLADGYKHMSLALNRTGRSIVYSCEWPLYMWPFQKPNYTEIRQYCNHWRNFADIDDSWKSIKSILDWTSFNQERIVDVAGPGGWNDPDMLVIGNFGLSWNQQVTQMALWAIMAAPLFMSNDLRHISPQAKALLQDKDVIAINQDPLGKQGYQLRQGDNFEVWERPLSGLAWAVAMINRQEIGGPRSYTIAVASLGKGVACNPACFITQLLPVKRKLGFYEWTSRLRSHINPTGTVLLQLENTMQMSLKDLL | 7.5 | 1.3 | 32 ± 2.2 | 24.5 ± 1.8 | 6491 ± 691 | 8468 ± 832 |
| D161Y (protein) MQLRNPELHLGCALALRFLALVSWDIPGARALDNGLARTPTMGWLHWERFMCNLDCQEEPDSCISEKLFMEMAELMVSEGWKDAGYEYLCIDDCWMAPQRDSEGRLQADPQRFPHGIRQLANYVHSKGLKLGIYADVGNKTCAGFPGSFGYYDIDAQTFAYWGVDLLKFDGCYCDSLENLADGYKHMSLALNRTGRSIVYSCEWPLYMWPFQKPNYTEIRQYCNHWRNFADIDDSWKSIKSILDWTSFNQERIVDVAGPGGWNDPDMLVIGNFGLSWNQQVTQMALWAIMAAPLFMSNDLRHISPQAKALLQDKDVIAINQDPLGKQGYQLRQGDNFEVWERPLSGLAWAVAMINRQEIGGPRSYTIAVASLGKGVACNPACFITQLLPVKRKLGFYEWTSRLRSHINPTGTVLLQLENTMQMSLKDLL | 32.1 | 1.9 | 63.1 ± 4.6 | 31 ± 2.5 | 11060 ± 1571 | 21231 ± 2136 |
| D165A (protein) MQLRNPELHLGCALALRFLALVSWDIPGARALDNGLARTPTMGWLHWERFMCNLDCQEEPDSCISEKLFMEMAELMVSEGWKDAGYEYLCIDDCWMAPQRDSEGRLQADPQRFPHGIRQLANYVHSKGLKLGIYADVGNKTCAGFPGSFGYYDIDAQTFADWGVALLKFDGCYCDSLENLADGYKHMSLALNRTGRSIVYSCEWPLYMWPFQKPNYTEIRQYCNHWRNFADIDDSWKSIKSILDWTSFNQERIVDVAGPGGWNDPDMLVIGNFGLSWNQQVTQMALWAIMAAPLFMSNDLRHISPQAKALLQDKDVIAINQDPLGKQGYQLRQGDNFEVWERPLSGLAWAVAMINRQEIGGPRSYTIAVASLGKGVACNPACFITQLLPVKRKLGFYEWTSRLRSHINPTGTVLLQLENTMQMSLKDLL | 4.4 | 5.2 | 5.4 ± 0.3 | 1 ± 0.1 | 271 ± 30 | 1397 ± 86 |
